Assay results reported in the RNAGym collection of RNA variant scans (doi:10.1093/nar/gkz1192).

B1: CPEB3 Ribozyme (parent)
chain: UAACAGGGGGCCACAGCAGAAGCGUUCACGUCGCAGCCCCUGUCAGAUUCUGGUGAAUCUGCGAAUUCUGCUGUAUAUCUC

Variants of: B1
Test: self-cleavage, relative activity (ratio to wild type); higher = more cleavage; in vitro, sequencing
In short: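 CPEB3 self-cleaving ribozyme mutant libraries were made by rounds of error-prone PCR, barcoded, and transcribed in vitro with T7 RNA polymerase for 5 hours at 37°C. Cleavage occurred during transcription and a 15 min DNase I step before EDTA stop. RNAs were reverse transcribed with template switching and Illumina-sequenced, with DNA sequencing mapping barcodes to variants. Relative activity is the variant's cleaved/total read fraction divided by wild type's (minimum 5 reads), averaged across three batches.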

Variant | self-cleavage
UAACAGGGGGCCACAGCAGAAGCGUUCGCGUCGCAGCCCCUGUCAGAUUCUGGUGAAUCUGAGAAUUCUGCUGUAUAUCUC [A28G C62A] | 0.23
UAACAGGGGGCCACAGCAGAAGCGUUCGCGUCGCAGCCCCUGUCAGAUUCUGGUGAAUCUGGGAAUUCUGCUGUAUAUCUC [A28G C62G] | 0.21
UAACAGGGGGCCACAGCAGAAGCGUUCGCGUCGCAGCCCCUGUCAGAUUCUGGUGAAUCUGUGAAUUCUGCUGUAUAUCUC [A28G C62U] | 0.27
UAACAGGGGGCCACAGCAGAAGCGUUCGCGUCGCAGCCCCUGUCAGAUUCUGGUGAAUCUGCGUAUUCUGCUGUAUAUCUC [A28G A64U] | 0.24
UAACAGGGGGCCACAGCAGAAGCGUUCGCGUCGCAGCCCCUGUCAGAUUCUGGUGAAUCUGCGAGUUCUGCUGUAUAUCUC [A28G A65G] | 0.33
UAACAGGGGGCCACAGCAGAAGCGUUCGCGUCGCAGCCCCUGUCAGAUUCUGGUGAAUCUGCGAUUUCUGCUGUAUAUCUC [A28G A65U] | 0.15
UAACAGGGGGCCACAGCAGAAGCGUUCGCGUCGCAGCCCCUGUCAGAUUCUGGUGAAUCUGCGACUUCUGCUGUAUAUCUC [A28G A65C] | 0.21
UAACAGGGGGCCACAGCAGAAGCGUUCGCGUCGCAGCCCCUGUCAGAUUCUGGUGAAUCUGCGAAUUCUGCUGUAUUUCUC [A28G A77U] | 0.79
UAACAGGGGGCCACAGCAGAAGCGUUCGCGUCGCAGCCCCUGUCAGAUUCUGGUGAAUCUGCGAAUUCUGCUGUAUCUCUC [A28G A77C] | 0.58
UAACAGGGGGCCACAGCAGAAGCGUUCGCGUCGCAGCCCCUGUCAGAUUCUGGUGAAUCUGCGAAUUCUGCUGUAUGUCUC [A28G A77G] | 0.72
UAACAGGGGGCCACAGCAGAAGCGUUCGCGUCGCAGCCCCUGUCAGAUUCUGGUGAAUCUGCAAAUUCUGCUGUAUAUCUC [A28G G63A] | 0.38
UAACAGGGGGCCACAGCAGAAGCGUUCGCGUCGCAGCCCCUGUCAGAUUCUGGUGAAUCUGCUAAUUCUGCUGUAUAUCUC [A28G G63U] | 0.8
UAACAGGGGGCCACAGCAGAAGCGUUCGCGUCGCAGCCCCUGUCACAUUCUGGUGAAUCUGCGAAUUCUGCUGUAUAUCUC [A28G G46C] | 0.08
UAACAGGGGGCCACAGCAGAAGCGUUCGCGUCGCAGCCCCUGUCAAAUUCUGGUGAAUCUGCGAAUUCUGCUGUAUAUCUC [A28G G46A] | 0.09
UAACAGGGGGCCACAGCAGAAGCGUUCGCGUCGCAGCCCCUGUCAGAUUCUGGUGAAUCUUCGAAUUCUGCUGUAUAUCUC [A28G G61U] | 0.5
UAACAGGGGGCCACAGCAGAAGCGUUCGCGUCGCAGCCCCUGUCAGAUUCUGGUGAAUCUACGAAUUCUGCUGUAUAUCUC [A28G G61A] | 0.38
UAACAGGGGGCCACAGCAGAAGCGUUCGCGUCGCAGCCCCUGUCAGAUUCUGGUGAAUCUCCGAAUUCUGCUGUAUAUCUC [A28G G61C] | 0.15

Variant | self-cleavage
UAACAGGGGGCCACAGCAGAAGCGUUCGCGUCGCAGCCCCUGUCAGAUUCUGGUGAAUCUGCGAAUUCUGCUCUAUAUCUC [A28G G73C] | 1.29
UAACAGGGGGCCACAGCAGAAGCGUUCGCGUCGCAGCCCCUGUCAGAUUCUGGUGAAUCUGCGAAUUCUGCUAUAUAUCUC [A28G G73A] | 1.16
UAACAGGGGGCCACAGCAGAAGCGUUCGCGUCGCAGCCCCUGUCAGAUUCUGGUGAAUCUGCGAAUUCUGCUGUAUAUCUA [A28G C81A] | 1
UAACAGGGGGCCACAGCAGAAGCGUUCGCGUCGCAGCCCCUGUCAGAUUCUGGUGAAUCUGCGAAUUCUGCUGUAUAUCUU [A28G C81U] | 0.75
UAACAGGGGGCCACAGCAGAAGCGUUCGCGUCGCAGCCCCUGUCAGAUUCUGGUGAAUCUGCGAAUUCUGCUGUAUAUCUG [A28G C81G] | 0.42
UAACAGGGGGCCACAGCAGAAGCGUUCGCGUCGCAGCCCCUGUCAGAUUCUGGUGAAUCUGCGAAUUCUGCUGUGUAUCUC [A28G A75G] | 0.53
UAACAGGGGGCCACAGCAGAAGCGUUCGCGUCGCAGCCCCUGUCAGAUUCUGGUGAAUCUGCGAAUUCUGCUGUUUAUCUC [A28G A75U] | 0.73
UAACAGGGGGCCACAGCAGAAGCGUUCGCGUCGCAGCCCCUGUUAGAUUCUGGUGAAUCUGCGAAUUCUGCUGUAUAUCUC [A28G C44U] | 0.28
UAACAGGGGGCCACAGCAGAAGCGUUCGCGUCGCAGCCCCUGUAAGAUUCUGGUGAAUCUGCGAAUUCUGCUGUAUAUCUC [A28G C44A] | 0.12
UAACAGGGGGCCACAGCAGAAGCGUUCGCAUCGCAGCCCCUGUCAGAUUCUGGUGAAUCUGCGAAUUCUGCUGUAUAUCUC [A28G G30A] | 0.2
UAACAGGGGGCCACAGCAGAAGCGUUCGCCUCGCAGCCCCUGUCAGAUUCUGGUGAAUCUGCGAAUUCUGCUGUAUAUCUC [A28G G30C] | 0.32
UAACAGGGGGCCACAGCAGAAGCGUUCGCGUCGCAGCCCCUGUCAGAUUUUGGUGAAUCUGCGAAUUCUGCUGUAUAUCUC [A28G C50U] | 0.48
UAACAGGGGGCCACAGCAGAAGCGUUCGCGUCGCAGCCCCUGUCAGAUUGUGGUGAAUCUGCGAAUUCUGCUGUAUAUCUC [A28G C50G] | 0.29
UAACAGGGGGCCACAGCAGAAGCGUUCGCGUCGCAGCCCCUGUCAGAUUAUGGUGAAUCUGCGAAUUCUGCUGUAUAUCUC [A28G C50A] | 0.48
UAACAGGGGGCCACAGCAGAAGCGUUCGCGUAGCAGCCCCUGUCAGAUUCUGGUGAAUCUGCGAAUUCUGCUGUAUAUCUC [A28G C32A] | 0.13
UAACAGGGGGCCACAGCAGAAGCGUUCGCGUUGCAGCCCCUGUCAGAUUCUGGUGAAUCUGCGAAUUCUGCUGUAUAUCUC [A28G C32U] | 0.24
UAACAGGGGGCCACAGCAGAAGCGUUCGCGUCGCAGCCCCUGUCAGAUUCUGGUGAAUCUGCGAAUUCUGCUGUAUAUUUC [A28G C79U] | 0.88
